Changes are numbered by the printed parent chain. Names and notes keep the numbering of the source.

The chains are these.
B1: 114-7.19.12 (antibody, V domains shown)
VH: QVQLQQSGAELASPGASVKLSCKASGYTFTTYWLQWVKQRPGQGLEWIGAIYPGPGNTKYTQKFKDKATLTADKSASTAYMQLNSLTSEDSAVYYCARRGSRRGIAYWGQGTLVTVSA
VL: NIVLTQSPASLAVSLGQRATISCRASESVDSYGRSFMHWYQQRPGQPPTLLIYLASNLESGVPVRFSGSGSRTDFTLTIDPVEADDAATYYCQQDNEDPYTFGGGTKLEIK
notes: Murine monoclonal antibody purified from hybridoma supernatant
B2: 114-7.37.26 (antibody, V domains shown)
VH: B1 VH with A24T, N84S
VL: B1 VL with V64A
notes: Murine monoclonal antibody from hybridoma
B3: 114-5.7.14 (antibody, V domains shown)
VH: EVQLQQSGAELVKPGASVKLSCTASGFKIKDTYMHWVRQRPEQGLEWIGRIDSANGNIKYDPKFQGKATITADTSSKTAYLHLSSLTFEDTAVYYCSRPKSNYDFWLPYWGQGTLVTVSA
VL: DIQMTQTTSSLSASLGDRVTISCSASQGISNYLNWYQQKPDGTVKLLIYYTSSLHSGVPSRFSGSGSGTDYSLTISNLEPEDIATYYCQQYSKLPLTFGAGTKLELK
notes: as for B2
B4: 114-2.222 (antibody, V domains shown)
VH: EVQLQQSGAELVKPGASVKLSCTTSGFNIKATYIHWVQQRPEQGLEWIGRIDPANGNTKYDSKFQGKATITADTSSNTAYLQLSSLTSEDTAVYFCARSLHYYVFFDYWGQGTTLTVSS
VL: DIQMTQTTSSLSASLGDRVTISCSASQGISNYLNWYQQKPDGTVKLLIYSTSSLHSGVPSRFSGSGSGTDYSLTISSLEPEDIATYYCQQYSKLPLTFGAGTKLELKR
notes: as for B2
B5: 114-2.402 (antibody, V domains shown)
VH: EVQLQQSGTELVKPGASVKLSCTLFGFNIKATYMHWVRQRPEQGLEWIGRIDPPNGNTKYDPKFQDKATIKVDTSSNTAYLQLSSLTSEDTAVYYCAREFNRYDVWLAYWGQGTLVTVSA
VL: B4 VL with I29V, S77N, I83V, L96F, A100S, L106I
notes: as for B2
B6: 114-5.9.4 (antibody, V domains shown)
VH: EVQLQQSGAELVKPGASVKLSCTASGFNLKGTYIHWVKQRPGQGLEWIGRIDPANANTKYDPKFQGKATIRTDTSSNTAYLQLSSLTSEDTAVYFCSSPSGHYDVWFAYWGQGTLVTVSP
VL: B4 VL with T7P, R18T, G28D, V44L, S50Y, S77N, Y91F
notes: as for B2
B7: 114-6.6.29 (antibody, V domains shown)
VH: DVKLVESGGGLVKPGGSLKLSCAASGFTFSSYTMSWVRQTPEKRLEWVATISSGGSYTYYPDSVKGRFTISRDNAKNTLYLQMSSLKSEDTAMYYCTRDWDYYGTTYVGGYAMDYWGQGTSVTVSS
VL: DVLMTQTPLSLPVSLGDQASISCRSSQSIVHSNGNTYLEWYLQKPGQSPKLLIYKVSNRFSGVPDRFSGSGSGTDFTLKISRVEAEDLGVYYCFQGSHVPWTFGGGTKLEIK
notes: as for B2
B8: 114-7.38.48 (antibody, V domains shown)
VH: DVQLQESGPDLVKPSQSLSLTCTVTGYSITSAYSWHWIRQFPGNKLEWMGYIHFSGVTNYNPSLKSRISITRDASKNQFFLQLSSVTTEDTATYYCATRRETGFTYWGQGTLVTVSA
VL: DIVLTQSPATLSVTPGDSVSLSCRASQSISKNLHWYQQKSHESPRLLIKYASQSISGIPSRFSGSGSGTDFTLSINSVETEDFGIYFCQQINSWPLTFGAGTKLELK
notes: as for B2
B9: G2 (antibody, human IgG2, kappa, V domains shown)
VH: QVQLVQSGAELKKPGASVKLSCKASGYTFTTYWLQWVRQAPGQGLEWMGAIYPGPGNTKYTQKFKDRFTITADKSKSTAYMQLNSLKSEDSAVYYCARRGSRRGIAYWGQGTLVTVSA
VL: NIVLTQSPASLSVSLGQRATISCRASESVDSYGRSFMHWYQQRPGQAPRLLIYLASNLESGVPARFSGSGSRTDFTLTISSVEAEDEATYYCQQDNEDPYTFGGGTKLEIKG
notes: 293F cells
B10: G1 (antibody, human IgG2, kappa, V domains shown)
VH: B1 VH
VL: B9 VL with S12A, A47P, R49T, A64V, S80D, S81P, E85D, E87A
notes: expressed in 293F cells; also called murine antibody G1; mouse antibody (G1)
B11: G3 (antibody, human IgG2, kappa, V domains shown)
VH: B9 VH
VL: B9 VL with R43K, R49K, A64S, S81A, E87A
notes: 293F cells
B12: G5 (antibody, human IgG2, kappa, V domains shown)
VH: B9 VH
VL: B9 VL with R43K, R49K, A64S, S81R, E87A
notes: 293F cells
B13: G6 (antibody, human IgG2, kappa, V domains shown)
VH: B9 VH with K12V, K13Q, A40T, F68V, K74T, K76T, K87R
VL: B9 VL
notes: 293F cells
B14: G7 (antibody, human IgG2, kappa, V domains shown)
VH: B9 VH with K12V, K13Q, A40T, F68V, K74T, K76T, K87R
VL: B9 VL with R43K, R49K, A64S, S81A, E87A
notes: 293F cells
B15: G9 (antibody, human IgG2, kappa, V domains shown)
VH: B9 VH with K12V, K13Q, A40T, F68V, K74T, K76T, K87R
VL: B9 VL with R43K, R49K, A64S, S81R, E87A
notes: 293F cells
B16: G13 (antibody, human IgG2, kappa, V domains shown)
VH: B9 VH with K74T
VL: B9 VL with R43K, R49K, A64S, S81R, E87A
notes: 293F cells
B17: G11 (antibody, human IgG2, kappa, V domains shown)
VH: B9 VH with K74T
VL: B9 VL with R43K, R49K, A64S, S81A, E87A
notes: 293F cells

The target of one experiment is T1, recombinant human RANKL (soluble, Gly136-Asp317, N-terminal 10 His, expressed in CHO cells) (human, UniProt O14788 136-317).
T1 sequence: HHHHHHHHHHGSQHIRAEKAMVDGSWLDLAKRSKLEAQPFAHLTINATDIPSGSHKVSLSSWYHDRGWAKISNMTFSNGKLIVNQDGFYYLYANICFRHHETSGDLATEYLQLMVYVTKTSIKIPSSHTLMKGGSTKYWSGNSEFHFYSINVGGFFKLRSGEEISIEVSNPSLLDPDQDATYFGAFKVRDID
The experiment can be described thus: cell-based or functional assay.
Consider B1, for which the “EC50 value (ng/ml), inhibition of RAW264.7 differentiation” value turned out to be 267 ng/mL.
Consider B2, for which the “EC50 value (ng/ml), inhibition of RAW264.7 differentiation” value is 470 ng/mL.
On the same count and under the same terms, then B3, with 315 ng/mL; and B4, with 311 ng/mL.
For the molecule B5, the “EC50 value (ng/ml), inhibition of RAW264.7 differentiation” value was found to be 396 ng/mL.
As to B6, the “EC50 value (ng/ml), inhibition of RAW264.7 differentiation” value was 340 ng/mL.
Same read-out and setting: then B7, with 799 ng/mL.
For B8, the “EC50 value (ng/ml), inhibition of RAW264.7 differentiation” value turned out to be 585 ng/mL.

Another experiment has as its target T2, monkey RANKL (cynomolgus monkey, R & D Systems) (cynomolgus monkey, UniProt A0A7N9DBU4 140-317).
T2 construct: also called cynomolgus monkey RANKL
T2 sequence: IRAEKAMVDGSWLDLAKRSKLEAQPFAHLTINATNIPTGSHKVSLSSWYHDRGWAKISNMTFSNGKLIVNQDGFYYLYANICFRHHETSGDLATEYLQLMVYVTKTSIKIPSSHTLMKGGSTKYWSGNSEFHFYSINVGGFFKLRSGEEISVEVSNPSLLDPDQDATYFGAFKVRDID
Nature of the experiment: direct ELISA, monkey RANKL coated.
As to B1, the EC50 is 0.0129 mg/L.
The same measure, in the same setting: then B2, with 0.016 mg/L; and B3, with 0.00686 mg/L; and B4, with 0.0153 mg/L.
Turning to B5, the EC50 was found to be 0.0111 mg/L.
Same read-out and setting: then B6, with 0.00967 mg/L; and B7, with 0.0104 mg/L; and B8, with 0.0198 mg/L.

Another experiment concerns the target T3, mouse RANKL (R & D Systems) (mouse, UniProt O35235 158-316, limits assumed).
T3 construct: also called murine RANKL
T3 sequence (looked up): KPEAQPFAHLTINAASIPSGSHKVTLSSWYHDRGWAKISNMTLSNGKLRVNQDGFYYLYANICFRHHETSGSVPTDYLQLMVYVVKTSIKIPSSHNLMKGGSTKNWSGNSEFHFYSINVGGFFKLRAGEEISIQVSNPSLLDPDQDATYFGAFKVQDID
The experiment can be described thus: direct ELISA, mouse RANKL coated 1 µg/ml.
On to B1, for which the binding result was “no binding”.
As to B2, the binding result is on record as “no binding”.
Same read-out and setting: then B3, with “no binding”; and B4, with “no binding”; and B5, with “no binding”.
The same measure, in the same setting: then B6, with “no binding”.
Take B7: the binding result was “no binding”.
For B8, the binding result is “no binding”.

In the next experiment the target is T1, recombinant human RANKL (soluble, …). The experiment can be described thus: direct ELISA, human RANKL coated 1 µg/ml.
B1: the EC50 came to 0.00993 mg/L.
Consider B2, for which the EC50 came out at 0.0159 mg/L.
For B3, the EC50 was found to be 0.00623 mg/L.
In the case of B4, the EC50 came to 0.0137 mg/L.
The same measure, in the same setting: for B5 the value was 0.0112 mg/L.
As for B6, the EC50 was determined as 0.0118 mg/L.
Consider B7, for which the EC50 amounted to 0.0117 mg/L.
Consider B8, for which the EC50 stood at 0.0185 mg/L.

For another experiment the target is unchanged. The experiment can be described thus: ELISA, hRANKL coated 1 µg/ml; concentration at 50% Bmax; Plate#01.
As to B9, the EC50 stood at 0.00255 mg/L.
On the same count and under the same terms, then B10, with 0.00147 mg/L.
On the same count and under the same terms, then B11, with 0.00187 mg/L; and B12, with 0.00221 mg/L; and B13, with 0.00147 mg/L.
With B14, the EC50 is 0.00182 mg/L.

Another experiment has the same target. Nature of the experiment: ELISA, hRANKL coated 1 µg/ml; concentration at 50% Bmax; Plate#02.
With B10, the EC50 came to 0.00188 mg/L.
As for B15, the EC50 is 0.00328 mg/L.
For the molecule B16, the EC50 came to 0.00234 mg/L.
On the same count and under the same terms, for B17 the value was 0.0019 mg/L.

A further experiment shares this target. The experiment can be described thus: competitive ELISA, RANK-Fc coated, antibody pre-incubated with 0.25 µg/ml hRANKL; Plate#01.
With B9, the IC50 stood at 0.3 mg/L.
Still for that read-out and setting: for B10 the value was 0.18 mg/L; for B11, 0.31 mg/L.
Still for that read-out and setting: then B12, with 0.29 mg/L.
On the same count and under the same terms, then B13, with 0.29 mg/L.
For the molecule B14, the IC50 was 0.29 mg/L.

The next experiment shares this target. The experiment can be described thus: competitive ELISA, RANK-Fc coated, antibody pre-incubated with 0.25 µg/ml hRANKL; Plate#02.
Consider B10, for which the IC50 is around 0.35 mg/L.
As to B15, the IC50 is 0.5 mg/L.
Consider B16, for which the IC50 stood at 0.31 mg/L.
Same read-out and setting: for B17 the value was 0.19 mg/L.

For another experiment the target is unchanged. The experiment can be described thus: competitive ELISA, RANK-Fc coated, antibody mixed with human RANKL (0.6 µg/ml, equal volume).
Regarding B1, the EC50 is 0.28 mg/L.
Same read-out and setting: for B2 the value was 0.29 mg/L.
On the same count and under the same terms, for B3 the value was 0.33 mg/L; for B4, 0.8 mg/L; for B5, 0.93 mg/L.
For the molecule B6, the EC50 came out at 0.28 mg/L.
Take B7: the EC50 was 0.39 mg/L.
On to B8, for which the EC50 came out at 0.93 mg/L.

Source of the values: patent publication EP3085709A1 (Genor Biopharma Co., Ltd, dated 2016).
